# Assay results: article PMC10896730
# B1: electron-transfer flavoprotein dehydrogenase (ETFDH) (natural protein)
# chain: SSTSAVPQITTHYTVHPREKDKRWEGVNMERFAEEADVVIVGAGPAGLSAAIRLKQLAAEQGKDIRVCLVEKAAQIGAHTLSGACLDPAAFKELFPDWKEKGAPLNTPVTEDRFAILTEKHRIPVPILPGLPMNNHGNYIVRLGHLVSWMGEQAEALGVEVYPGYAAAEVLYHEDGSVKGIATNDVGIQKDGAPKTTFERGLELHAKVTVFAEGCHGHLAKQLYKKFDLRASCDAQTYGIGLKELWIIDEKKWKPGRVDHTVGWPLDRHTYGGSFLYHLNEGEPLVAVGFVVGLDYQNPYLSPFREFQRWKHHPSIQPTLEGGKRIAYGARALNEGGLQSIPKLTFPGGLLIGCSPGFMNVPKIKGTHTAMKSGSLAAESIFKQLTSENLQSKTTGLHVTEYEDNLKQSWVWKELHAVRNIRPSCHGILGVYGGMIYTGIFYWILRGMEPWTLKHKGSDSDQLKPAKDCTPIEYPKPDGQISFDLLSSVALSGTNHEHDQPAHLTLKDDSIPVNRNLSIYDGPEQRFCPAGVYEFVPLEQGDGFRLQINAQNCVHCKTCDIKDPSQNINWVVPEGGGGPAYNGM
# Biological target: oxidative phosphorylation (OXPHOS) complex III (CIII), all subunits (mouse (endogenous in skeletal muscle)) (UniProt Q9CZ13)
# Test: affinity purification with mass spectrometry; IP of UQCRC2 from mouse hindlimb Skm extracts, LC–MS; stoichiometry from the slopes of protein abundance against effective number of tryptic peptides; approximate
# Chain of UniProt Q9CZ13 (Q9CZ13 whole entry, looked up, tested part not stated, one chain of several): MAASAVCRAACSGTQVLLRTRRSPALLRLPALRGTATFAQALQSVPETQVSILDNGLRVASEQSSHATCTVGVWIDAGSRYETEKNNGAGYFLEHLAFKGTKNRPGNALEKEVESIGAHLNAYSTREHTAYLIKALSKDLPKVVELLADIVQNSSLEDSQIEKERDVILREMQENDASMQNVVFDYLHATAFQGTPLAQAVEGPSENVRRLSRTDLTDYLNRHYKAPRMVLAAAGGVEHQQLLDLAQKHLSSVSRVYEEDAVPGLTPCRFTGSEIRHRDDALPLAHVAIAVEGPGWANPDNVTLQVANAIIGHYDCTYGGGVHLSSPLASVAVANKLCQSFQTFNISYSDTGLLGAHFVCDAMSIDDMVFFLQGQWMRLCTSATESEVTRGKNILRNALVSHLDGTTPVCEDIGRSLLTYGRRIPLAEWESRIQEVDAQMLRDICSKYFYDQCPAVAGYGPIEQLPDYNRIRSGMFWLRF
binder,measurement,value
B1,stoichiometry N (ETF complex per CIII complex),0.5
